Experimental data published in patent publication US20200277406A1 (ROCHE DIAGNOSTICS OPERATIONS, published 2020).
“And” between values parts separate entries of the source, which are not always exact repeats. Equal entries are not always repeated.

What was measured:
[1] = molecular target: T1, pIGF-1R(1340-1366)[1346-pTyr]amid (phosphotyrosine at 1346 (1346-pTyr); C-terminal amide); assay: SPR (Biacore 3000, 25 C), dual binder on biotinylated linker on SA chip, peptide in solution; T40-Bi linker (spacer T20-Biotin-dT-T20)
T1 construct: also called pIGF-1R peptide; phosphorylated IGF-1R peptide (free in solution)
T1 peptide: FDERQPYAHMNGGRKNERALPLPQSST
Method: (§1) A BIACORE™ 3000 instrument (GE Healthcare) was used with a BIACORE™ SA sensor mounted into the system at T=25° C. The system was preconditioned at 100 μl/min with 3 ×1 min injection of 1 M NaCl in 50 mM NaOH and 1 min 10 mM HCl.
(§2) 124 RU amino-PEO-biotin were captured on the reference flow cell 1.
(§3) As a control, buffer was injected instead of the ssFabs.

[2] = molecular target: T1, pIGF-1R(1340-1366)[1346-pTyr]amid; assay: SPR (Biacore 3000, SA sensor, 25 °C): ssFab′ hybridised on the captured biotinylated T40-Bi linker (linker 10), peptide injected in solution
Method: as §2, §3
(§4) The dissociation was monitored at 50 μl/min for 5.3 min. The system was regenerated after each concentration step with a 12 sec pulse of 250 mM NaOH and was reloaded with ssFab′ ligand.

IGF-1R(1340-1366)amid [3] = molecular target: T2, IGF-1R(1340-1366)amid (C-terminal amide); assay: as above
T2 construct: also called IGF-1R peptide; non-phosphorylated IGF-1R peptide (free in solution)
T2 peptide: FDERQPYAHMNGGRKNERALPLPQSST
Method: as §2, §3, §4

[4] = molecular target: T3, IGF-1R(1340-1366)[1346-pTyr; Glu(Bi-PEG-1340]amid (not fully specified; phosphotyrosine at 1346 (1346-pTyr); biotin-PEG linker bound via glutamic acid corresponding to position 1340; C-terminal amide); assay: SPR (Biacore 2000, 25 C), immobilised biotinylated peptide, 100 nM ssFab′ in solution
T3 construct: also called pIGF-1R peptide; phosphorylated IGF-1R peptide (biotinylated)
T3 peptide: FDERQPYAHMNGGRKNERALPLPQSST
Method: (§5) Subsequently biotinylated peptides were captured on the SA surface in the respective flow cells. […] Finally all flow cells were saturated with d-biotin.
(§6) Report points were set at the end of the analyte association phase (Binding Late, BL) and at the end of the analyte dissociation phase (Stability Late, SL) to monitor the response unit signal heights of each interaction. The dissociation rates kd (1/s) were calculated according to a linear 1:1 Langmuir fit using the BIACORE™ evaluation software 4.1. The complex halftimes in minutes were calculated upon the formula ln(2)/(60*kd).

[5] = molecular target: T4, IGF-1R(1340-1366); Glu(Bi-PEG-1340]amid (not fully specified; biotin-PEG linker bound via glutamic acid corresponding to position 1340; C-terminal amide); assay: as above
T4 construct: also called IGF-1R peptide; non-phosphorylated IGF-1R peptide (biotinylated)
T4 peptide: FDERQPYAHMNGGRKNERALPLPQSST
Method: as §5, §6

[6] = molecular target: T1, pIGF-1R(1340-1366)[1346-pTyr]amid; assay: SPR (Biacore 3000, SA sensor, 25 °C): ssFab′ hybridised on the captured biotinylated T0-Bi 37-mer linker, peptide injected in solution
Method: as §2, §3, §4

IGF-1R(1340-1366)amid [7] = molecular target: T2, IGF-1R(1340-1366)amid; assay: as above
Method: as §2, §3, §4

[8] = molecular target: T1, pIGF-1R(1340-1366)[1346-pTyr]amid; assay: SPR (Biacore 3000, 25 C), dual binder on biotinylated linker on SA chip, peptide in solution; T0 linker (no thymidine spacer)
Method: as §1, §2, §3

Row | Kd [1] [nM] | Kd [2] | Kd (IGF-1R(1340-1366)amid [3]) | t1/2 diss (IGF-1R(1340-1366)amid [3]) [min] | T1/2 dis [4] [min] | T1/2 dis [5] [min] | Kd [6] | t1/2 diss [6] [min] | Kd (IGF-1R(1340-1366)amid [7]) | t1/2 diss (IGF-1R(1340-1366)amid [7]) [min] | Kd [8] [nM] | Binder
1 | 0.01 | 0.0125 nM | 0.973 nM and 1 nM | 4.3 | – | – | – | – | – | – | – | T40 dual binding agent (ssFab′ 8.1.2 and ssFab′ 1.4.168 on the T40-Bi linker, linker 10) (bispecific antibody, V domains shown, Fab′ hinge cysteine coupled to ssDNA) VH 1: EVQLQQSGPALVKPGASVKMSCKASGFTFTSYVIHWVKQKPGQGLEWIGYLNPYNDNTKYNEKFKGKATLTSDRSSSTVYMEFSSLTSEDSAVYFCARRGIYAYDHYFDYWGQGTSLTVSS VL 1: QIVLTQSPAIMSASPGEKVTLTCSASSSVNYMYWYQQKPGSSPRLLIYDTSNLASGVPVRFSGSGSVTSYSLTISRMEAEDAATYYCQQWSTYPLTFGAGTKLELK VH 2: QCDVKLVESGGGLVKPGGSLKLSCAASGFTFSDYPMSWVRQTPEKRLEWVATITTGGTYTYYPDSIKGRFTISRDNAKNTLYLQMGSLQSEDAAMYYCTRVKTDLWWGLAYWGQGTLVTVSA VL 2: QLVLTQSSSASFSLGASAKLTCTLSSQHSTYTIEWYQQQPLKPPKYVMELKKDGSHTTGDGIPDRFSGSSSGADRYLSISNIQPEDESIYICGVGDTIKEQFVYVFGGGTKVTVLG
2 | – | 2.14 nM and 2 nM | 1.1 nM and 1 nM | 3 | 3 | 3 | 2.59 nM and 3 nM | 4 | 1.35 nM and 1 nM | 4 | – | ssFab′ 1.4.168 (Fab, V domains shown, hinge-region cysteine of the Fab′ coupled via maleimide to a fluorescein-labelled ssDNA oligonucleotide, Fab′ of murine mAb 1.4.168 (pepsin cleavage, cysteamine reduction), 1:1 conjugated to ssDNA; also called fluorescein-ssFab′ 1.4.168; ssFab′ 1.004.168) VH: DVKLVESGGGLVKPGGSLKLSCAASGFTFSDYPMSWVRQTPEKRLEWVATITTGGTYTYYPDSIKGRFTISRDNAKNTLYLQMGSLQSEDAAMYYCTRVKTDLWWGLAYWGQGTLVTVSA VL: QLVLTQSSSASFSLGASAKLTCTLSSQHSTYTIEWYQQQPLKPPKYVMELKKDGSHTTGDGIPDRFSGSSSGADRYLSISNIQPEDESIYICGVGDTIKEQFVYVFGGGTKVTVLG
3 | – | – | – | – | – | – | 0.0344 nM | – | 1.2 nM and 1 nM | 5 | 0.03 | T0 dual binding agent (ssFab′ 8.1.2 and ssFab′ 1.4.168 on the T0-Bi 37-mer linker) (bispecific antibody, V domains shown, Fab′ hinge cysteine coupled to ssDNA) VH 1: EVQLQQSGPALVKPGASVKMSCKASGFTFTSYVIHWVKQKPGQGLEWIGYLNPYNDNTKYNEKFKGKATLTSDRSSSTVYMEFSSLTSEDSAVYFCARRGIYAYDHYFDYWGQGTSLTVSS VL 1: QIVLTQSPAIMSASPGEKVTLTCSASSSVNYMYWYQQKPGSSPRLLIYDTSNLASGVPVRFSGSGSVTSYSLTISRMEAEDAATYYCQQWSTYPLTFGAGTKLELK VH 2: QCDVKLVESGGGLVKPGGSLKLSCAASGFTFSDYPMSWVRQTPEKRLEWVATITTGGTYTYYPDSIKGRFTISRDNAKNTLYLQMGSLQSEDAAMYYCTRVKTDLWWGLAYWGQGTLVTVSA VL 2: QLVLTQSSSASFSLGASAKLTCTLSSQHSTYTIEWYQQQPLKPPKYVMELKKDGSHTTGDGIPDRFSGSSSGADRYLSISNIQPEDESIYICGVGDTIKEQFVYVFGGGTKVTVLG
